This passage reports dH, Kd and stoichiometry N results from PMC10820826, “Interrogation and validation of the interactome of neuronal Munc18-interacting Mint proteins with AlphaFold2” (The Journal of Biological Chemistry, 2023).

Assay [1] deals with Munc18-1 + Mint1 (rat | human) (UniProt P61765). Description: ITC. On the technique in general: ITC needs no label: the signal is the heat of the interaction.
A further assay addresses Munc18-1-His (rat) (UniProt P61765).

With “Rat Sx1a (Sx1(1-261)-His) (from UniProt P32851 1-261) (domain or fragment)”, the dH in assay [1] was -29.7 kcal/mol.
For Mint1_14 peptide (261-282 A275A/E276A), in the assay with Munc18-1-His (rat), the Kd – broadly, the constant that tells how readily two partners part at equilibrium – was 216 µM; the dH was -57.6 kcal/mol; the stoichiometry N – broadly, the number of molecules, sites or subunits per partner or assembly – is 1.
